B1: LINE1-full (parent)
chain: UACGUAGGUGGUUUUCCCCUGAUAGUGCUAAGGGGGCCUGGAAGUUUGGACUGGGCAGAGCUCAACACAGCGUGGCAAAGUGGCUGUGGCUAGACUGCCUCUCUGGAUUCCUCGUCACUCAGCAGGGCAUCUCUGAGAGAAAUGCC

The values that follow come from the RNAGym collection of RNA variant scans (doi:10.7554/elife.90254).

Variants of B1 are the subject of the data set. Description: self-cleavage, relative activity (ratio to wild type); higher = more cleavage; in vitro, sequencing; the parent is a self-cleaving ribozyme.
As for U12G U109C, the self-cleavage amounted to 1.57.
Consider U12A U15A, for which the self-cleavage was 0.95.
As for U12A U15C, the self-cleavage came out at 0.92.
Consider U12A A77G, for which the self-cleavage came out at 1.88.
The value for U12C C84U was 0.15; that for U12G U45C was 1.48.
As for U12G A107U, the self-cleavage was determined as 0.98.
With U12G A107G, the self-cleavage came out at 1.58.
The value for U12A U108C was 1.28.
As for U12C A142U, the self-cleavage was determined as 0.91.
The figure for U12C A142C is 1.38; for G10A U85C it is 0.09; for U12G U108G it is 0.82.
On to U12C C68U, for which the self-cleavage came to 0.35.
The figure for U12G A129G is 1.14.
U12G A129C: the self-cleavage is 1.1.
As to U12G U81C, the self-cleavage was determined as 0.86.
As to U12A U81A, the self-cleavage amounted to 1.89.
Regarding G10A U47C, the self-cleavage came to 1.37.
In the case of U12G A64G, the self-cleavage was found to be 0.52.
With U12G A64C, the self-cleavage was determined as 0.55.
Consider U12C A22G, for which the self-cleavage came out at 1.64.
Consider G11A U108C, for which the self-cleavage is 1.58.
The value for U12A C123U was 1.38; that for U12C U130A was 1.49; that for U12A A69G was 0.42.
On to G11A U62G, for which the self-cleavage was determined as 0.03.
The figure for U12C G97A is 0.22; for U12C U46C it is 1.62.
Regarding U12G A43G, the self-cleavage stood at 1.41.
Take U12G A43U: the self-cleavage amounted to 0.81.
The figure for U12G A43C is 1.02.
As for U12C A117U, the self-cleavage came out at 1.28.
Consider U12G A65U, for which the self-cleavage is 0.23.
In the case of U12C U52A, the self-cleavage was determined as 1.41.
Regarding G10A U26C, the self-cleavage is 0.95.
The value for U13A C63U was 0.35; that for U12C U109C was 1.48; that for U12C A121U was 1.11.
For the variant U12C A121G, the self-cleavage came out at 1.74.
The figure for U12C C101U is 1.02; for U12C C101A it is 1.72; for U12C G32A it is 1.54.
U12A U73A: the self-cleavage amounted to 1.47.
As for U12A U73G, the self-cleavage turned out to be 0.73.
Turning to U12A U73C, the self-cleavage was 1.11.
U12A A140G: the self-cleavage was found to be 1.51.
For the variant U12A A140U, the self-cleavage stood at 1.09.
As to U13A A67G, the self-cleavage was determined as 0.22.
The figure for U13A A67U is 0.07; for U12G G40A it is 1.41.
In the case of U12C U20C, the self-cleavage came to 1.24.
The figure for U12C G74A is 1; for U12C C133A it is 1.67.
In the case of U12G U20C, the self-cleavage was 1.02.
Regarding U12C C146G, the self-cleavage turned out to be 1.03.
With U12G A94U, the self-cleavage is 0.24.
The figure for U12G A94G is 0.42; for U12A A59U it is 0.56.
The value for G11U A136U was 1.26; that for U13A C56A was 0.05; that for U12C U108A was 1.25.
As to U12C U108C, the self-cleavage was determined as 1.66.
On to U12C C90U, for which the self-cleavage worked out at 0.04.
Turning to U12C G72U, the self-cleavage is 1.13.
For the variant U12C G25A, the self-cleavage was determined as 1.18.
Regarding G10U C145A, the self-cleavage is 1.
Consider U12A G127A, for which the self-cleavage came out at 0.66.
For the variant U12C A140U, the self-cleavage was 1.24.
The value for U12C A140G was 1.2; that for U12C G88A was 0.1; that for U12C C98U was 0.26.
Turning to U12G U96A, the self-cleavage turned out to be 0.21.
The value for U12G U29C was 1.02; that for G11A U29A was 1.34; that for U12C U134A was 1.22.
The value for G11C G48U was 1.25; that for U12G A59U was 1.15; that for U12A A65C was 0.14.
For the variant U12A A65G, the self-cleavage is 0.21.
The figure for U12C A124G is 1.23; for U12A U134C it is 0.73.
Regarding U12A U134A, the self-cleavage worked out at 0.6.
The figure for U12A A138G is 1.37; for U13A it is 0.98; for U12C G82A it is 1.68.
The figure for U12A G137U is 1.05; for U12C A136G it is 1.41.
The figure for U12A C113U is 1.36; for U12G U13C it is 0.95.
Consider U12G G80A, for which the self-cleavage came to 1.64.
As for G10A U23C, the self-cleavage is 1.49.
Take U12A A142G: the self-cleavage came to 1.31.
U12G A50G: the self-cleavage turned out to be 1.2.
For U12G A50U, the self-cleavage was 1.16.
As to U12G C98U, the self-cleavage was determined as 0.41.
As to G10A U14C, the self-cleavage is 1.45.
The value for U12G G35A was 0.89.
Take U12A C98U: the self-cleavage was determined as 0.41.
The value for U12G A77G was 1.41; that for U12G C120A was 1.49.
In the case of U12G U115G, the self-cleavage stood at 0.
Turning to U12G U115A, the self-cleavage was 0.75.
U12G U115C: the self-cleavage is 1.47.
The value for U13A A140G was 0.52; that for G11U A79U was 1.75; that for U12A U39C was 1.17.
As for U13A A50G, the self-cleavage was determined as 0.76.
On to U12C G105A, for which the self-cleavage turned out to be 1.54.
Consider U12G U143C, for which the self-cleavage is 1.23.
U12C U14G: the self-cleavage came to 0.59.
For the variant U12C U14A, the self-cleavage amounted to 0.81.
In the case of U12A G32C, the self-cleavage turned out to be 0.8.
For the variant U12A G32A, the self-cleavage stood at 1.08.
The figure for U12C U13C is 1.2.
Take U12C U13A: the self-cleavage came to 0.27.
Consider U12C U23C, for which the self-cleavage turned out to be 1.34.
As to U12C U119G, the self-cleavage was 1.5.
Regarding U12C U119C, the self-cleavage was determined as 1.64.
Consider U12A U100A, for which the self-cleavage was found to be 0.87.
U12A A141G: the self-cleavage is 1.19.
Consider G11A A78G, for which the self-cleavage worked out at 1.38.
For U12C G93A, the self-cleavage came out at 0.08.
With U13A C71G, the self-cleavage amounted to 0.2.
As for U12G U119A, the self-cleavage was 1.32.
In the case of U12G U119C, the self-cleavage is 1.34.
The value for G11A C95A was 0.06.
For U12G A141G, the self-cleavage is 1.22.
On to U12G U104C, for which the self-cleavage turned out to be 1.48.
As to G10C U13C, the self-cleavage worked out at 0.94.
Regarding G11U A124U, the self-cleavage was 1.31.
For U12G A79G, the self-cleavage came out at 1.25.
Consider U12G C116U, for which the self-cleavage was 0.62.
As to U12A U102C, the self-cleavage was 1.42.
In the case of U12A U47A, the self-cleavage came to 0.67.
The figure for U12A U47C is 1.17.
The value for U12G U130A was 1.65.
Regarding U12C G54A, the self-cleavage came out at 0.62.
The value for U13A A77G was 0.46.
Consider U12C A94U, for which the self-cleavage worked out at 0.38.
As for G10A U81A, the self-cleavage was 2.3.
The figure for U12C U87C is 0.21; for U12G G114A it is 1.07; for G10U it is 1.26.
For the variant G10C, the self-cleavage was 0.79.
Consider G11A U13C, for which the self-cleavage was 0.51.
As for G11A A77U, the self-cleavage amounted to 1.58.
For the variant U12C G40U, the self-cleavage was determined as 1.2.
For U12G A142G, the self-cleavage was determined as 0.83.
The value for U12G A142C was 0.93; that for U12C U112C was 1.26; that for U13A A107U was 1.74.
In the case of U13A A107G, the self-cleavage turned out to be 1.11.
Regarding U12G G72A, the self-cleavage was 0.9.
On to G11A A65G, for which the self-cleavage turned out to be 0.02.
As to U12A U26C, the self-cleavage is 1.22.
In the case of G10A U45C, the self-cleavage came out at 1.4.
The figure for U12G U85C is 0.4; for U12G G97U it is 0.07; for U12C U100C it is 1.6.
G11A A59G: the self-cleavage is 0.08.
The figure for U13A A78U is 1.52; for G11A C51U it is 1.38.
As for G11U U130C, the self-cleavage turned out to be 1.
G11A U52G: the self-cleavage amounted to 1.56.
The figure for U12G U47C is 1.04; for U12G C113U it is 0.66.
